Kd data for 8 molecules are collected here from US10766960 (dated 2020).

Changes are numbered by the printed parent chain. Where two headings read alike, the source gives them in different places.

Holding throughout (assay): SPR
(SPR reads the build-up and loss of mass on a sensor chip optically.)

Assay [1] deals with T1, FcgRIIb (human, UniProt P31994).
T1 chain: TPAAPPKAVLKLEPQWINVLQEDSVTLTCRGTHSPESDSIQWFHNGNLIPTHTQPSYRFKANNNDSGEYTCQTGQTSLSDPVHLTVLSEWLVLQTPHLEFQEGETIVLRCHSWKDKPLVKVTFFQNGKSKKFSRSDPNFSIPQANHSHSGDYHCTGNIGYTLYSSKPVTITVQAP

For assay [2], the target named is T2, FcgRIIIa F (human, UniProt P08637).
T2 sequence (P08637 17-208): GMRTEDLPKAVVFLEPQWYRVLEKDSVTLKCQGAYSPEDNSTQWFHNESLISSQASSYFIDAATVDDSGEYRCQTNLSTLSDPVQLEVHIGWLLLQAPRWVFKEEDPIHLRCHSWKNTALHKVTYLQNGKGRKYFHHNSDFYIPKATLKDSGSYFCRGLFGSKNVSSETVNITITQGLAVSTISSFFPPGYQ
Assay [3] addresses T3, FcgRIIa R (human, UniProt P12318).
T3 chain: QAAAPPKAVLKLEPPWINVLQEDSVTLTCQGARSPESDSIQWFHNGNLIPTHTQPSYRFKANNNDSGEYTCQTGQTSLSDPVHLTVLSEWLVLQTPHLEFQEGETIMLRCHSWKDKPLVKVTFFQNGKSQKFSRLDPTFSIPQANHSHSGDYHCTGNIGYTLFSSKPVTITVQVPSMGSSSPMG

The target of assay [4] is T2, FcgRIIIa F. This is another data set of the same source.
In assay [5] the target is T4, FcgRIIa H (human, UniProt P12318).
T4 chain: T3 chain with R134H

Assay [6] concerns the target T5, FcgRIIIa V (human, UniProt P08637).
Another assay addresses T6, FcgRIa (human, UniProt P12314).
T6 chain: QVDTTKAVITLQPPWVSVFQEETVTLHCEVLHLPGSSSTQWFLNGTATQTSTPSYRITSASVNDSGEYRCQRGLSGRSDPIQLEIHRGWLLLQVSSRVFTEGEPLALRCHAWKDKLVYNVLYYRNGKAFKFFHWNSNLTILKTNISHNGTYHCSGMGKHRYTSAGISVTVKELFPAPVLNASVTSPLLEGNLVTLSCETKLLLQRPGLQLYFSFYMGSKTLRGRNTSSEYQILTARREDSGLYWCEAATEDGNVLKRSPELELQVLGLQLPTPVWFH

In assay [7] the target is T3, FcgRIIa R.
Assay [8] addresses T4, FcgRIIa H.
The target in assay [9] is T5, FcgRIIIa V. The source holds these as a separate data set.
In assay [10] the target is T2, FcgRIIIa F. The source holds these as a separate data set.
Assay [11] deals with T2, FcgRIIIa F. The source holds these as a separate data set.
For assay [12], the target named is T2, FcgRIIIa F. The source holds these as a separate data set.
Assay [13] addresses T1, FcgRIIb.
For assay [14], the target named is T2, FcgRIIIa F. The source holds these as a separate data set.

T5 sequence (P08637 17-208 F176V): as the sequence (P08637 17-208) above, with F160V counted along it

B1: H240-afucosyl_G1d/L73-k0 (antibody)
chain 1: not shown
chain 2: DIQMTQSPSSLSASVGDRVTITCRASQDIHKYIAWYQQKPGQAPRLLIQYTSTLQPGVPSRFSGSGSGTDYTFTISSLQPEDIATYYCLQYEQLRTFGGGTKVEIKRTVAAPSVFIFPPSDEQLKSGTASVVCLLNNFYPREAKVQWKVDNALQSGNSQESVTEQDSKDSTYSLSSTLTLSKADYEKHKVYACEVTHQGLSSPVTKSFNRGEC
Usually Kd stands for the equilibrium constant for the complex coming apart. Higher therefore signals lower affinity. As for B1, the dissociation constant (Kd) in the assay with FcgRIIb [1] came out at 2.6 µM; with FcgRIIIa F [2], 0.079 µM; with FcgRIIa R [3], 0.49 µM; in the assay with FcgRIIIa F [4], 0.078 µM; in the assay with FcgRIIa H [5] it was 0.78 µM; with FcgRIIIa V [6], 0.0069 µM. The Kd with FcgRIa stood at 0.00043 µM.

B2: IL6R-BP208/IL6R-L (antibody)
chain 1: QVQLQESGPGLVKPSETLSLTCAVSGHSISHDHAWSWVRQPPGEGLEWIGFISYSGITNYNPSLQGRVTISRDNSKNTLYLQMNSLRAEDTAVYYCARSLARTTAMDYWGEGTLVTVSSASTKGPSVFPLAPSSKSTSGGTAALGCLVKDYFPEPVTVSWNSGALTSGVHTFPAVLQSSGLYSLSSVVTVPSSSLGTQTYICNVNHKPSNTKVDKKVEPKSCDKTHTCPPCPAPDLLGDDSVFLFPPKPKDTLMISRTPEVTCVVVDVSDEDGEVKFNWYVDGVEVHNAKTKPREEQYNSTYRVVSVLTVLHQDWLNGKEYKCKVSNKALPRPIEKTISKAKGQPREPQVYTLPPSRDELTKNQVSLTCLVKGFYPSDIAVEWESNGQPENNYKTTPPVLDSDGSFFLYSKLTVDKSRWQQGNVFSCSVMHEALHNHYTQESLSLSP
chain 2: not shown
With B2, the figures for the Kd with FcgRIIa R [7], in the assay with FcgRIIa H [8] and with FcgRIIIa V [9] were 0.85 µM, 8.3 µM and 53 µM, respectively.

B3: GpH7-TA7/GpH7-TA58/GpL16-k0 (antibody)
chain 1: QVQLVQSGAEVKKPGASVTVSCKASGYTFTDYEMHWIRQPPGEGLEWIGAIDPKTGDTAYSESFQDRVTLTADKSTSTAYMELSSLTSEDTAVYYCTRFYSYTYWGQGTLVTVSSASTKGPSVFPLAPSSKSTSGGTAALGCLVKDYFPEPVTVSWNSGALTSGVHTFPAVLQSSGLYSLSSVVTVPSSSLGTQTYICNVNHKPSNTKVDKKVEPKSCDKTHTCPPCPAPEYLWGPSVFLFPPKPKDTLMISRTPEVTCVVVDVSHEDPEVKFNWYVDGVEVHNAKTKPREEQYNATYRVVSVLTVLHQDWLNGKEYKCKVSNKALPAPIEKTISKAKGQPREPQVYTLPPSRKELTKNQVSLTCLVKGFYPSDIAVEWESNGQPENNYKTTPPVLDSDGSFFLYSKLTVDKSRWQQGNVFSCSVMHEALHNRYTQKSLSLSP
chain 2: B3 chain 1 with Y232L, W234G, S237D, Y294W, A296S, A328L, I330E, K354D, R433H, K437E
chain 3: DIVMTQSPLSLPVTPGEPASISCQASESLVHSNRNTYLHWYLQKPGQSPQLLIYKVSNRFSGVPDRFSGSGSGTDFTLKISRVEAEDVGVYYCSQNTHVPPTFGQGTKVEIERTVAAPSVFIFPPSDEQLKSGTASVVCLLNNFYPREAKVQWKVDNALQSGNSQESVTEQDSKDSTYSLSSTLTLSKADYEKHKVYACEVTHQGLSSPVTKSFNRGEC
Take B3: the Kd in the assay with FcgRIIIa F [10] is 0.0033 µM.

B4: GpH7-TA52/GpH7-B78/GpL16-k0 (antibody)
chain 1: B3 chain 1 with Y294W
chain 2: B3 chain 1 with Y232L, W234G, S237D, A296S, A328L, I330E, K354D, R433H, K437E
chain 3: B3 chain 3
B4: the dissociation constant Kd with FcgRIIIa F [10] turned out to be 0.0023 µM.

B5: GpH7-TA7/GpH7-TA50/GpL16-k0 (antibody)
chain 1: B3 chain 1
chain 2: B3 chain 1 with Y232L, W234G, S237D, A296S, A328L, I330E, K332G, K354D, R433H, K437E
chain 3: B3 chain 3
Molecule B5 gave a Kd with FcgRIIIa F [11] of 0.0034 µM.

B6: GpH7-TA22/GpH7-B78/GpL16-k0 (antibody)
chain 1: B3 chain 1 with S237D
chain 2: B3 chain 1 with Y232L, W234G, S237D, A296S, A328L, I330E, K354D, R433H, K437E
chain 3: B3 chain 3
In turn, B6 gave a dissociation constant Kd in the assay with FcgRIIIa F [12] of 0.0013 µM.

B7: GpH7-TA7/GpH7-B78/GpL16-k0 (antibody)
chain 1: B3 chain 1
chain 2: B3 chain 1 with Y232L, W234G, S237D, A296S, A328L, I330E, K354D, R433H, K437E
chain 3: B3 chain 3
On to B7, for which the Kd in the assay with FcgRIIIa F [12] was 0.0041 µM; with FcgRIIb [13] it was 1.1 µM; in the assay with FcgRIIIa F [14] it was 0.0047 µM.

B8: GpH7-TA40/GpH7-B78/GpL16-k0 (antibody)
chain 1: B3 chain 1 with K332G
chain 2: B3 chain 1 with Y232L, W234G, S237D, A296S, A328L, I330E, K354D, R433H, K437E
chain 3: B3 chain 3
Regarding B8, in the assay with FcgRIIIa F [11], the Kd was determined as 0.0075 µM.
